Experimental data as given in publication doi:10.1101/2023.02.14.528348v1.

Substrate: C[C@H](N)C(=O)N[C@@H](C)C(=O)O
Assay: proton-coupled uptake, pyranine fluorescence assay in proteoliposomes
Assay type: biochemical, Escherichia coli
Details: valinomycin / potassium gradient driven membrane potential

B1: DtpB (Escherichia coli K-12) (protein)
chain: MNTTTPMGMLQQPRPFFMIFFVELWERFGYYGVQGVLAVFFVKQLGFSQEQAFVTFGAFAALVYGLISIGGYVGDHLLGTKRTIVLGALVLAIGYFMTGMSLLKPDLIFIALGTIAVGNGLFKANPASLLSKCYPPKDPRLDGAFTLFYMSINIGSLIALSLAPVIADRFGYSVTYNLCGAGLIIALLVYIACRGMVKDIGSEPDFRPMSFSKLLYVLLGSVVMIFVCAWLMHNVEVANLVLIVLSIVVTIIFFRQAFKLDKTGRNKMFVAFVLMLEAVVFYILYAQMPTSLNFFAINNVHHEILGFSINPVSFQALNPFWVVLASPILAGIYTHLGNKGKDLSMPMKFTLGMFMCSLGFLTAAAAGMWFADAQGLTSPWFIVLVYLFQSLGELFISALGLAMIAALVPQHLMGFILGMWFLTQAAAFLLGGYVATFTAVPDNITDPLETLPVYTNVFGKIGLVTLGVAVVMLLMVPWLKRMIATPESH
With B1 as the protein, how does the Km read?
Its Km is 290 ± 40 µM.
